EC50 and Kd data for nine molecules are collected here from patent CN113234145A (THE FIFTH AFFILIATED HOSPITAL SUN YAT SEN UNIV; ZHUHAI …, dated 2021).

Experiment [1] addresses T1, SARS-CoV-2病毒N蛋白(全长) (SARS-CoV-2, UniProt P0DTC9 1-419).
In a further experiment the target is MERS-CoV N蛋白 (MERS-CoV, UniProt K9N4V7 1-411). Nature of the experiment: SPR (Biacore X100), antibody captured as ligand, MERS-CoV N protein as analyte. For orientation: In SPR one partner is held on a chip, and binding of the other changes the refractive index at the surface.
A further experiment addresses SARS-CoV N蛋白 (SARS-CoV, UniProt P59595 1-422). Nature of the experiment: SPR (Biacore X100), antibody captured as ligand, SARS-CoV N protein as analyte.
In experiment [2] the target is T1, SARS-CoV-2病毒N蛋白(全长). In words: SPR (Biacore X100), antibody captured as ligand, N protein as analyte.

B1: nCoV400 (antibody, V domains shown)
VH: EVQLLESGGGLVQPGGSLRLSCAASGFTFSSYAMSWVRQAPGKGLEWVSVIYSGGSSTYYADSVKGRFTISRDNSKNTLYLQMNSLRAEDTAVYYCAKDHLELSAAGSQINYYYYGMDVWGQGTTVTVSS
VL: SYELTQPPSVSVSPGQTARITCSGDALPKQYAYWYQQKPGQAPVLVIYKDSERPSGIPERFSGSSSGTTVTLTISGVQAEDEADYYCQSADSSGTSHWVFGGGTKLTVL
By EC50 is commonly meant the midpoint of the concentration-response curve. A high value points to weaker potency. In the case of B1, the EC50 with SARS-CoV-2病毒N蛋白(全长) [1] came out at 1110 ng/mL.

B2: nCoV396 (antibody, V domains shown)
VH: QVQLVESGGGVVQPGRSLRLSCAASGFTFSSYIMHWVRQAPGKGLEWVAVISYDGSNEAYADSVKGRFTISRDNSKNTLYLQMSSLRAEDTGVYYCARETGDYSSSWYDSWGRGTLVTVSS
VL: QLVLTQSPSASASLGASVKLTCTLSSGHSNYAIAWHQQQPEKGPRYLMKVNSDGSHTKGDGIPDRFSGSSSGAERYLTISSLQSEDEADYYCQTWGTGIQVFGGGTKLTVL
What is called Kd is a measure of binding affinity in units of concentration. A low value points to a tighter complex. On to B2, for which, in the experiment with SARS-CoV-2病毒N蛋白(全长) [1], the EC50 was found to be 3.2 ng/mL. Moreover, the values for the dissociation constant Kd with MERS-CoV N蛋白, with SARS-CoV N蛋白 and with SARS-CoV-2病毒N蛋白(全长) [2] were 7.43 nM, 7.44 nM and 1.02 nM, respectively.

B3: nCoV402 (antibody, V domains shown)
VH: QVQLVESGGGVVQPGGSLRLSCAASGFTFSRFTMHWVRQAPGKGLEWVAIISFNGSDKLYVDSVKGRFTVSRDSSKEMLYLQMSSLRHEDTAVYYCARETEDYTSSYFDYWGQGTLVTVSS
VL: QLVLTQSPSASASLGASVKLTCTLSSGHNNYAIAWHQQQPQTGPRFLMKVNSDGSHVKGDGIPDRFTGSSSGTGRYLTISSLQSEDEADYYCQTWASGIQVFGGGTKLTVL
In the case of B3, it took 6.3 ng/mL to reach a half-maximal effect with SARS-CoV-2病毒N蛋白(全长) [1] (EC50).

B4: nCoV454 (antibody, V domains shown)
VH: QVQLVESGGGVVQPGGSLRLSCVTSGFTFSNYAMHWVRQAPGKGLEWVAIISYDGSHLYGDSVKGRFTISRDNSKNTLYLEMSSLRNEDTATYYCARETPEVSGSWIDYWGQGALVIVSS
VL: QLVLTQSPSASASLGASVNLTCTLTSGHNSYAIAWHQQQPNKGPRYLMKLNSDGSHDKGDGIPDRFSGSSSGTERYLTISSLQSEDEADYYCQTWGTGVQVFGGGTKLTVL
The molecule B4 had a concentration for a half-maximal effect (EC50) with SARS-CoV-2病毒N蛋白(全长) [1] of 5 ng/mL.

B5: nCoV425 (antibody, V domains shown)
VH: QVQLVESGGGVVQPGRSLRLSCAASGFTFSNYAMHWVRQPPGKGLEWVAIISYEGRTEYADSMKGRFTISRDNSKSAVYLQMNSLRPEDTAVYYCAREVFDISGSWFDYWGQGTLVTVSS
VL: QLVLTQSPSASASLGASVKLTCTLSSRHSNYAIAWHQQQPEKGPRYLMKLNSDGSHTKGDGIPDRFSGSSSGAERYLTISSLHSEDEADYYCQTWGTGIQVFGGGTKVTVV
Consider B5, for which it took 5.2 ng/mL to reach a half-maximal effect with SARS-CoV-2病毒N蛋白(全长) [1] (EC50).

B6: nCoV457 (antibody, V domains shown)
VH: QVQLVESGGGVVQPGRSLRLSCVASGFTFSRYIIHWVRQAPGKGLEWVAVISYDGTAALYADTVKGRFTISRDNSKNTLYLQMNSLRADDTAVYYCARETGEMSTSYFEYWGQGTLVTVSS
VL: QLVLTQSPSASASLGASVKLTCTLSSRHNNYAIAWHQQQPEKGPRFLMKVNSDGSHTKGDGIPDRFSGSSSGAERYLTISSLQSDDEADYYCQTWGTGNQVFGGGTKVTVL
In the case of B6, a half-maximal response with SARS-CoV-2病毒N蛋白(全长) [1] (EC50) required 2.6 ng/mL.

B7: nCoV416 (antibody, V domains shown)
VH: QVQLVQSGAVLKRPGASVKLSCKASGYIFTSYHIHWVRQAPGQGLEWLGTINPRGDVTAYAQKFQGRVSLTRDTSTTTVYMELSSLRSEDTAIYYCAREHGDVSSSVFDHWGQGTLVSVSS
VL: QLVLTQSPSASASLGASIKLTCTLSSGHSNYAIAWHKQQPEKGLRYLMKVNSDGSHNKGDGIPDRFSGSSSGPERYLIISSLQSDDEADYHCQTWASGIQVFGGGTKLTVL
In the case of B7, the concentration for a half-maximal effect (EC50) with SARS-CoV-2病毒N蛋白(全长) [1] was 3.3 ng/mL.

B8: nCoV433 (antibody, V domains shown)
VH: QVQLVESGGGVVQPGRSLRLSCAASGFTFSNYAMHWVRQAPGKGLEWVTIISYDGTNIYEDSVKGRFTISRDNSKNTLYLQMNSLRAEDTAVYYCAREVFDSSGSWFDYWGQGTLVTVSS
VL: QLVLTQSPSASASLGASVRLTCSLSSGHRNYAIAWHQQQPEKGPRYLMKLNSDGSHTKGDGVPDRFSGSSSGAERYLTISSLQSEDEADYYCQTWGTGIQVFGGGTKVTVL
Molecule B8 yielded a half-maximal effective concentration (EC50) in the experiment with SARS-CoV-2病毒N蛋白(全长) [1] of 5.3 ng/mL.

B9: nCoV424 (antibody, V domains shown)
VH: QVQLVQSGAEVKKPGASVKLSCKASGYTFSSYYIHWVRQAPGQGLEWLGIINPGGDITAYAQKFQGRVSLTRDTSTSTVYMQLSSLRYEDTAVYYCAREEGDVSTSVFDNWGQGTLVTVSS
VL: QLVLTQSPSASASLGASIKLTCTLSSGHRSYAIAWHQQQPGKGPRYLMKLNSDGSHIKGDGVPDRFSGSSSGAERYLSISSLQSEDEADYHCQTWGTGIQVFGGGTRLTVL
In turn, B9 had an EC50 in the experiment with SARS-CoV-2病毒N蛋白(全长) [1] of 11.8 ng/mL.
